Data on two molecules can be found in patent US20190076445A1 (UNIVERSITY OF CINCINNATI, published 2019).

This assay addresses T1, human FcϵRIα (human, UniProt P12319 26-257).
T1 construct: whole, on cells; also called huFcϵRIα
T1 sequence (looked up): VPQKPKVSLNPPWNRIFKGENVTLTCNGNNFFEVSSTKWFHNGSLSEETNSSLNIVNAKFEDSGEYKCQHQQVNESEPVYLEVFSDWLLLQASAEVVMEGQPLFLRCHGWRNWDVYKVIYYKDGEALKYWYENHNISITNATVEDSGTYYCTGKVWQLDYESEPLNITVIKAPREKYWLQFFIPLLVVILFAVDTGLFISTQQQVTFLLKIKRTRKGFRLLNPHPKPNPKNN
Description: summary of Examples 1-7 (huFcϵRIα mice, peritoneal mast cells, flow cytometry).

B1: IE7 (antibody, mouse IgG1, V domains shown)
VH: QVQLQESGGDVVKPGGSLKLSCAASGFTFSFYGMSWVRQTPDKKLEWVATISGGGNYTYYPDSVKGRFTISRDNAMNTLYLQMNSLKSEDTAMYYCVRAYYGNWNSYWGQGTLVTVS
VL: DIVMTQTPSSMYASLGERVTITCKASQDINNYLSWFQQKPGRSPKTLIYRANRLMDGVPSRIRGSGSGQDYSLTISSLEYEDMGIYYCLLYNEFPWMFGGGTKLEIKR
notes: Mouse IgG1 mAb from a hybridoma (ATCC PTA-125115); also called anti-FcϵRIα monoclonal antibody IE7; anti-huFcϵRIα mAb
Take B1: the binding result was “binds”.

B2: IB10 (antibody, V domains shown)
VH: QVQLQQPGAELVRPGASVKLSCKASGYSFTSYWMNWVNQRPGQGLEWIGMIHPSDSETRLNPNFKDRATLTVDKSSSTAYMQLSSPTSEDSAVYYCARGSLYDGYLFLYWGQGTLVTVSA
VL: DIVMTQSPLSLPVSLGDQASISCRSSQSILHSNGDTYLEWYLQKPGQSPKLLIYKVSNRFSGVPDRFSGSGSGTDFTLKISRVEAEDLGVYYCFQGSYVPFTFGSGTKLEIKR
notes: mAb from a hybridoma (ATCC PTA-125116); also called anti-FcϵRIα monoclonal antibody IB10; anti-huFcϵRIα mAb
B2: the binding result was “binds”.
